Data on 12 molecules can be found in patent US20190233493A1 (Sanofi, published 2019).

T1: RXFP1 receptor (UniProt Q9HBX9 1-757, limits assumed)
T1 sequence (looked up): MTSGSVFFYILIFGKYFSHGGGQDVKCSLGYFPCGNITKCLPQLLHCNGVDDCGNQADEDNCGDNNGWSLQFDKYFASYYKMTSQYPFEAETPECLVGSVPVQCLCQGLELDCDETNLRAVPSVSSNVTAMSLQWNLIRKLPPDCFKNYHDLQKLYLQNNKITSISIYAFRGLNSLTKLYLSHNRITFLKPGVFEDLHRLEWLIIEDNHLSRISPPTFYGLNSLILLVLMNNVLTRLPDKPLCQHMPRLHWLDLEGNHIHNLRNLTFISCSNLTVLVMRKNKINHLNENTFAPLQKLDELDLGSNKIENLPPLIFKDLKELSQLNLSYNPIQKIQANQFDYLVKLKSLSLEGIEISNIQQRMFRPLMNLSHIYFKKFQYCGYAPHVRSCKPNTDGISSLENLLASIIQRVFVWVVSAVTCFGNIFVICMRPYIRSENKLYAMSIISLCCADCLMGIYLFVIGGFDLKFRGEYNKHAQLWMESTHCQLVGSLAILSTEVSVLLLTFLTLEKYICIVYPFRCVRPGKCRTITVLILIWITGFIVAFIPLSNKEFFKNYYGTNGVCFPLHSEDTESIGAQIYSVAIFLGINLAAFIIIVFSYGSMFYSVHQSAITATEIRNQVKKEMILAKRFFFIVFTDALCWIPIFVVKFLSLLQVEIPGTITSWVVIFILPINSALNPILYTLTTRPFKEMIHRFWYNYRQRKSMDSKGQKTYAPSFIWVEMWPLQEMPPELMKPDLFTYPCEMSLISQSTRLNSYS

B1: B7-33 C11.23S (peptide)
peptide: H-VIKLSGRELVRAQIAISGMSTWSKRSL-NH2
B2: AcB7-33 C11.23S (peptide)
peptide: Ac-VIKLSGRELVRAQIAISGMSTWSKRSL-NH2
B3: KKKK(AcB7-29 C11.23S) (peptide)
peptide: Ac-VIKLSGRELVRAQIAISGMSTWSKKKK-NH2
B4: peptide of SEQ ID NO: 46 (peptide)
peptide: Ac-LEGREKVRAK(Ac)I[Aib][Aib]EG[Nle]STYS[Aib]RKK(Ac)[PEG12]K([γGlu-γGlu-γGlu-Stearoyl])-NH2
SMILES: CCCCCCCCCCCCCCCCCC(=O)N[C@@H](CCC(=O)N[C@@H](CCC(=O)N[C@@H](CCC(=O)NCCCC[C@H](NC(=O)CCOCCOCCOCCOCCOCCOCCOCCOCCOCCOCCOCCOCCNC(=O)[C@H](CCCCNC(C)=O)NC(=O)[C@H](CCCCN)NC(=O)[C@H](CCCNC(=N)N)NC(=O)C(C)(C)NC(=O)[C@H](CO)NC(=O)[C@H](Cc1ccc(O)cc1)NC(=O)[C@@H](NC(=O)[C@H](CO)NC(=O)[C@H](CCCC)NC(=O)CNC(=O)[C@H](CCC(=O)O)NC(=O)C(C)(C)NC(=O)C(C)(C)NC(=O)[C@@H](NC(=O)[C@H](CCCCNC(C)=O)NC(=O)[C@H](C)NC(=O)[C@H](CCCNC(=N)N)NC(=O)[C@@H](NC(=O)[C@H](CCCCN)NC(=O)[C@H](CCC(=O)O)NC(=O)[C@H](CCCNC(=N)N)NC(=O)CNC(=O)[C@H](CCC(=O)O)NC(=O)[C@H](CC(C)C)NC(C)=O)C(C)C)[C@@H](C)CC)[C@@H](C)O)C(N)=O)C(=O)O)C(=O)O)C(=O)O
B5: peptide of SEQ ID NO: 47 (peptide)
peptide: Ac-LEGREKVRAQI[Aib][Aib]EGMSTWS[Aib]RK[PEG24′]K([γGlu-γGlu-γGlu-Palmitoyl])-NH2
B6: peptide of SEQ ID NO: 41 (peptide)
peptide: Ac-LEGREKVRAK(Ac)I[Aib][Aib]EG[Nle]STWX[Aib]RKK(Ac)[PEG12]K([γGlu-γGlu-γGlu-Stearoyl])-NH2
modifications: not fully specified (some residues); printed as Ac-L-E-G-R-E-K-V-R-A-K(Ac)-I-Aib-Aib-E-G-Nle-S-T-W-Mse-Aib-R-K-K(Ac)-PEG12-K(gE-gE-gE-Stea)-NH2
B7: peptide of SEQ ID NO: 43 (peptide)
peptide: Ac-LEGREKVRAK(Ac)I[Aib][Aib]EG[Nle]STWS[αMeK]RKK(Ac)[PEG12]K([γGlu-γGlu-γGlu-γGlu-Palmitoyl])-NH2
B8: peptide of SEQ ID NO: 48 (peptide)
peptide: Ac-LEGREKVRAK(Ac)I[Aib][Aib]EG[Nle]STWS[Aib]RKK[PEG28′]K([γGlu-γGlu-γGlu-Stearoyl])-NH2
B9: peptide of SEQ ID NO: 42 (peptide)
peptide: Ac-LEGREKVRAK(Ac)I[Aib][Aib]EG[Nle]STWS[αMeK]RKK(Ac)[PEG12]K([γGlu-γGlu-γGlu-γGlu-Stearoyl])-NH2
SMILES: CCCCCCCCCCCCCCCCCC(=O)N[C@@H](CCC(=O)N[C@@H](CCC(=O)N[C@@H](CCC(=O)N[C@@H](CCC(=O)NCCCC[C@H](NC(=O)CCOCCOCCOCCOCCOCCOCCOCCOCCOCCOCCOCCOCCNC(=O)[C@H](CCCCNC(C)=O)NC(=O)[C@H](CCCCN)NC(=O)[C@H](CCCNC(=N)N)NC(=O)[C@](C)(CCCCN)NC(=O)[C@H](CO)NC(=O)[C@H](Cc1c[nH]c2ccccc12)NC(=O)[C@@H](NC(=O)[C@H](CO)NC(=O)[C@H](CCCC)NC(=O)CNC(=O)[C@H](CCC(=O)O)NC(=O)C(C)(C)NC(=O)C(C)(C)NC(=O)[C@@H](NC(=O)[C@H](CCCCNC(C)=O)NC(=O)[C@H](C)NC(=O)[C@H](CCCNC(=N)N)NC(=O)[C@@H](NC(=O)[C@H](CCCCN)NC(=O)[C@H](CCC(=O)O)NC(=O)[C@H](CCCNC(=N)N)NC(=O)CNC(=O)[C@H](CCC(=O)O)NC(=O)[C@H](CC(C)C)NC(C)=O)C(C)C)[C@@H](C)CC)[C@@H](C)O)C(N)=O)C(=O)O)C(=O)O)C(=O)O)C(=O)O
B10: peptide of SEQ ID NO: 45 (peptide)
peptide: Ac-LEGREKVRAK(Ac)I[Aib][Aib]EG[Nle]ST[1Nal]S[Aib]RK[PEG12]K([γGlu-γGlu-γGlu-Stearoyl])-NH2
SMILES: CCCCCCCCCCCCCCCCCC(=O)N[C@@H](CCC(=O)N[C@@H](CCC(=O)N[C@@H](CCC(=O)NCCCC[C@H](NC(=O)CCOCCOCCOCCOCCOCCOCCOCCOCCOCCOCCOCCOCCNC(=O)[C@H](CCCCN)NC(=O)[C@H](CCCNC(=N)N)NC(=O)C(C)(C)NC(=O)[C@H](CO)NC(=O)[C@H](Cc1cccc2ccccc12)NC(=O)[C@@H](NC(=O)[C@H](CO)NC(=O)[C@H](CCCC)NC(=O)CNC(=O)[C@H](CCC(=O)O)NC(=O)C(C)(C)NC(=O)C(C)(C)NC(=O)[C@@H](NC(=O)[C@H](CCCCNC(C)=O)NC(=O)[C@H](C)NC(=O)[C@H](CCCNC(=N)N)NC(=O)[C@@H](NC(=O)[C@H](CCCCN)NC(=O)[C@H](CCC(=O)O)NC(=O)[C@H](CCCNC(=N)N)NC(=O)CNC(=O)[C@H](CCC(=O)O)NC(=O)[C@H](CC(C)C)NC(C)=O)C(C)C)[C@@H](C)CC)[C@@H](C)O)C(N)=O)C(=O)O)C(=O)O)C(=O)O
B11: peptide of SEQ ID NO: 44 (peptide)
peptide: Ac-LEGREKVRAK(Ac)I[Aib][Aib]EGQSTYS[Aib]RKK(Ac)K([PEG2′-PEG2′-PEG2′-γGlu-γGlu-γGlu-Palmitoyl])-NH2
B12: peptide of SEQ ID NO: 49 (peptide)
peptide: Ac-LEGREKVRAK(Ac)I[Aib][Aib]EG[Nle]STWS[Aib]RKK(Ac)[PEG28′]K([γGlu-γGlu-γGlu-Stearoyl])-NH2

*1 amine or outer side, *2 acyl side, *3 side chain or, on linkers, in order; H or OH if unused. Primed or numbered codes have the meaning given here. Side-chain parts run from the residue outwards. [ ]: non-standard residue; d: D form. The star is where a group is joined. PEG28′ = polyethylene glycol spacer with 28 ethoxy units (aminoethoxy-ethoxy chain); PEG24′ = polyethylene glycol spacer of 24 ethoxy units; PEG12 = NCCOCCOCCOCCOCCOCCOCCOCCOCCOCCOCCOCCOCCC(=O)O; γGlu = O=C(O)[C@H](CCC(=O)[*:2])N[*:1]; 1Nal = N[C@@H](Cc1cccc2ccccc12)C(=O)O; Stearoyl = CCCCCCCCCCCCCCCCCC(=O)*; Palmitoyl = CCCCCCCCCCCCCCCC(=O)*; αMeK = C[C@](N)(CCCCN)C(=O)O; Nle = CCCC[C@H](N)C(=O)O; PEG2′ = PEG2 spacer unit; Aib = CC(C)(N)C(=O)O

One experiment concerns the target T1, RXFP1 receptor. The experiment is described as follows: cell-based or functional assay.
As to B1, the “EC50 (nM), cAMP assay in OVCAR 5 cells” value came to 1640 nM and the “Emax, cAMP assay in OVCAR 5 cells” value stood at 90%.

As to B2, the “EC50 (nM), cAMP assay in OVCAR 5 cells” value amounted to 929 nM and the “Emax, cAMP assay in OVCAR 5 cells” value was 70%.

On to B3, for which the “EC50 (nM), cAMP assay in OVCAR 5 cells” value was 206 nM and the “Emax, cAMP assay in OVCAR 5 cells” value was found to be 84%.

In a further experiment the target is T1, RXFP1 receptor. The experiment is described as follows: cell-based or functional assay. This is another data set of the same source.
For the molecule B4, the “EC50 (nM), OVCAR 5 cells (cAMP)” value was 0.61 nM and the “EMax, OVCAR 5 cells (cAMP)” value turned out to be 79%.

Take B5: the “EC50 (nM), OVCAR 5 cells (cAMP)” value came out at 2.56 nM and the “EMax, OVCAR 5 cells (cAMP)” value amounted to 100%.

For the molecule B6, the “EC50 (nM), OVCAR 5 cells (cAMP)” value was 0.09 nM and the “EMax, OVCAR 5 cells (cAMP)” value turned out to be 87%.

With B7, the “EC50 (nM), OVCAR 5 cells (cAMP)” value is 0.14 nM and the “EMax, OVCAR 5 cells (cAMP)” value was 106%.

As for B8, the “EC50 (nM), OVCAR 5 cells (cAMP)” value worked out at 0.25 nM and the “EMax, OVCAR 5 cells (cAMP)” value is 99%.

Turning to B9, the “EC50 (nM), OVCAR 5 cells (cAMP)” value came to 0.01 nM and the “EMax, OVCAR 5 cells (cAMP)” value is 91%.

Take B10: the “EC50 (nM), OVCAR 5 cells (cAMP)” value stood at 0.81 nM and the “EMax, OVCAR 5 cells (cAMP)” value was found to be 79%.

As for B11, the “EC50 (nM), OVCAR 5 cells (cAMP)” value came to 16.1 nM and the “EMax, OVCAR 5 cells (cAMP)” value is 75%.

In the case of B12, the “EC50 (nM), OVCAR 5 cells (cAMP)” value was 1.65 nM and the “EMax, OVCAR 5 cells (cAMP)” value came out at 106%.
